Measured values from patent US20150030596A1 (SAMSUNG ELECTRONICS, published 2015).

B1: bispecific chimeric protein ME-19 (L3-1Y-IgG2 heavy chain-(G4S)2-anti-EGFR DARPin-01) (bispecific antibody)
heavy: EVQLVESGGGLVQPGGSLRLSCAASGFTFTDYYMSWVRQAPGKGLEWLGFIRNKANGYTTEYSASVKGRFTISRDNSKNTLYLQMNSLRAEDTAVYYCARDNWFAYWGQGTLVTVSSASTKGPSVFPLAPCSRSTSESTAALGCLVKDYFPEPVTVSWNSGALTSGVHTFPAVLQSSGLYSLSSVVTVPSSNFGTQTYTCNVDHKPSNTKVDKTVERKCCVECPPCPAPPVAGPSVFLFPPKPKDTLMISRTPEVTCVVVDVSHEDPEVQFNWYVDGVEVHNAKTKPREEQFNSTFRVVSVLTVVHQDWLNGKEYKCKVSNKGLPAPIEKTISKTKGQPREPQVYTLPPSREEMTKNQVSLTCLVKGFYPSDIAVEWESNGQPENNYKTTPPMLDSDGSFFLYSKLTVDKSRWQQGNVFSCSVMHEALHNHYTQKSLSLSPGKGGGGSGGGGSDLGKKLLEAARAGQDDEVRILMANGADVNADDTWGWTPLHLAAYQGHLEIVEVLLKNGADVNAYDYIGWTPLHLAADGHLEIVEVLLKNGADVNASDYIGDTPLHLAAHNGHLEIVEVLLKHGADVNAQDKFGKTAFDISIDNGNEDLAEILQ
light: DIQMTQSPSSLSASVGDRVTITCKSSQSLLASGNQNNYLAWYQQKPGKAPKMLIIWASTRVSGVPSRFSGSGSGTDFTLTISSLQPEDFATYYCQQSYSRPYTFGQGTKVEIKRTVAAPSVFIFPPSDEQLKSGTASVVCLLNNFYPREAKVQWKVDNALQSGNSQESVTEQDSKDSTYSLSSTLTLSKADYEKHKVYACEVTHQGLSSPVTKSFNRGEC
notes: The DARPin is fused to the C-terminus of each heavy chain; also called anti-c-Met/anti-EGFR DARPin bispecific chimeric protein
B2: bispecific chimeric protein ME-28 (L3-1Y-IgG2 heavy chain-(G4S)2-anti-EGFR DARPin-01-(G4S)2-anti-EGFR DARPin-69) (bispecific antibody)
heavy: EVQLVESGGGLVQPGGSLRLSCAASGFTFTDYYMSWVRQAPGKGLEWLGFIRNKANGYTTEYSASVKGRFTISRDNSKNTLYLQMNSLRAEDTAVYYCARDNWFAYWGQGTLVTVSSASTKGPSVFPLAPCSRSTSESTAALGCLVKDYFPEPVTVSWNSGALTSGVHTFPAVLQSSGLYSLSSVVTVPSSNFGTQTYTCNVDHKPSNTKVDKTVERKCCVECPPCPAPPVAGPSVFLFPPKPKDTLMISRTPEVTCVVVDVSHEDPEVQFNWYVDGVEVHNAKTKPREEQFNSTFRVVSVLTVVHQDWLNGKEYKCKVSNKGLPAPIEKTISKTKGQPREPQVYTLPPSREEMTKNQVSLTCLVKGFYPSDIAVEWESNGQPENNYKTTPPMLDSDGSFFLYSKLTVDKSRWQQGNVFSCSVMHEALHNHYTQKSLSLSPGKGGGGSGGGGSDLGKKLLEAARAGQDDEVRILMANGADVNADDTWGWTPLHLAAYQGHLEIVEVLLKNGADVNAYDYIGWTPLHLAADGHLEIVEVLLKNGADVNASDYIGDTPLHLAAHNGHLEIVEVLLKHGADVNAQDKFGKTAFDISIDNGNEDLAEILQGGGGSGGGGSDLGKKLLEAARAGQDDEVRILMANGADVNADDNAGRTPLHLAANFGHLEIVEVLLKNGADVNAKGHHCNTPLHLAAWAGHLEIVEVLLKYGADVNADDDEGYTPLHLAADIGDLEIVEVLLKYGADVNAWDMYGRTPLHLAASAGHLEIVEVLLKYGADVNAQDKFGKTAFDISIDNGNEDLAEILQ
light: B1 light
notes: Two DARPins are linked in tandem to each heavy chain C-terminus of the IgG; also called anti-c-Met/anti-EGFR (E01+E69) DARPins bispecific chimeric protein

Experiments:
[1] = molecular target: T1, EGFR-Fc (#344-ER, R&D Systems) (UniProt P00533 25-645); assay: SPR (Biacore T100); ME-19 captured on human Fab binder on a CM5 chip, EGFR-Fc as analyte
T1 construct: Bought reagent; also called EGFR (R&D systems); EGFR (#344-ER, R&D Systems); not shown: Fc part of the bought fusion protein; not described
Protocol: Human Fab binder (GE Healthcare) was immobilized on the surface of CM5 chip (#BR-1005-30, GE) according to the manufacturer's manual. […] 10 mM Glycine-HCl (pH 1.5) solution was added hereto, to regenerate the surface. To determine the affinity, the obtained data were fitted using BIA evaluation software (GE Healthcare, Biacore T100 evaluation software).

[2] = molecular target: T1, EGFR-Fc (#344-ER, R&D Systems); assay: competitive ELISA: plate coated with EGFR (#344-ER, 0.25 ug/well), 20 ng/ml biotinylated EGF mixed with serially diluted ME-19, streptavidin/HRP detection, OD405
Protocol: 96-well immunoplate (Nunc) was coated with EGFR (#344-ER, R&D Systems) in the amount of 0.25 μg/well. […] The resulted reacting product was washed with PBS containing 0.05% (w/v) of Tween 20. HRP (Horse radish peroxidase) conjugated […] (#21140, Thermo scientific) was added to the each well and reacted at room temperature for 1 hour.

[3] = molecular target: T1, EGFR-Fc (#344-ER, R&D Systems); assay: SPR (Biacore T100); ME-28 captured on human Fab binder on a CM5 chip, EGFR-Fc as analyte
Protocol: The binding affinity of bispecific chimeric protein ME-28 to EGFR was examined using Biacore T100 (GE). Human Fab binder (GE Healthcare) was immobilized on the surface of CM5 chip (#BR-1005-30, GE) according to the manufacturer's manual. About 90˜120 RU of the bispecific chimeric protein ME-28 was captured, and various concentrations of EGFR-Fc (#344-ER, R&D Systems) were added to the captured bispecific chimeric protein. 10 mM Glycine-HCl (pH 1.5) solution was added hereto, to regenerate the surface. To determine the affinity, the obtained data were fitted using BIA evaluation software (GE Healthcare, Biacore T100 evaluation software).

Row | Kd [1] | koff [1] | kon [1] | IC50 (read off the curve) [2] | Kd [3] | koff [3] | kon [3] | Binder
1 | 0.35 nM | 6.4e-05 s⁻¹ | 180000 M⁻¹ s⁻¹ | ~0.5 µg/mL | – | – | – | B1
2 | – | – | – | – | < 0.01 nM | < 3.4e-05 s⁻¹ | 110000 M⁻¹ s⁻¹ | B2
